From patent EP4745153A1, “GLP-1, GIP AND GCG RECEPTOR […] USE THEREOF” (Jiangsu Hengrui Pharmaceuticals Co., Ltd., priority 2023, dated 2025)
Starred links: 1 amine or outer side, 2 acyl side, 3 side chain; linkers in the order of their positions; H or OH if unused. Non-standard residues stand in square brackets, D forms with d. Groups on a side chain read outwards from the residue. No end group written: not given here. *: point of attachment. C20 diacid = O=C(O)CCCCCCCCCCCCCCCCCCC(=O)*; γGlu = O=C(O)[C@H](CCC(=O)[*:2])N[*:1]; αMeK = C[C@](N)(CCCCN)C(=O)O; Iva = CC[C@](C)(N)C(=O)O; AEEA = NCCOCCOCC(=O)O; Aib = CC(C)(N)C(=O)O

How the values were obtained:
Assay in all cases: cell-based or functional assay
[1] = target: T1, human glucose-dependent insulinotropic polypeptide receptor (human, UniProt P48546 22-466)
T1 sequence (looked up): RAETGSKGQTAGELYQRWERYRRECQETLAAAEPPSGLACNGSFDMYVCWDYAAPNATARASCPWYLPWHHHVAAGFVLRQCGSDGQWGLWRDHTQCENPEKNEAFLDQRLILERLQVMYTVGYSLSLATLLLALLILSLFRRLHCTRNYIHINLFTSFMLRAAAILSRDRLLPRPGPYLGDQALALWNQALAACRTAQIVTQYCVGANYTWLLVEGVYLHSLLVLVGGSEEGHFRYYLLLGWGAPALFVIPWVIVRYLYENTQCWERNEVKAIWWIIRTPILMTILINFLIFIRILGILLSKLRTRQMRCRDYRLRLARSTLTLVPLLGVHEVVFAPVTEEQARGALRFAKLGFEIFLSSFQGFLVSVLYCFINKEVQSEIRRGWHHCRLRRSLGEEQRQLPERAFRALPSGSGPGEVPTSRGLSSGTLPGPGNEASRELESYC

[2] = target: human glucagon-like peptide-1 receptor (human, UniProt P43220 24-463)
human glucagon receptor = human glucagon receptor (human, UniProt P47871 26-477)
Chain of human glucagon receptor (P47871 26-477): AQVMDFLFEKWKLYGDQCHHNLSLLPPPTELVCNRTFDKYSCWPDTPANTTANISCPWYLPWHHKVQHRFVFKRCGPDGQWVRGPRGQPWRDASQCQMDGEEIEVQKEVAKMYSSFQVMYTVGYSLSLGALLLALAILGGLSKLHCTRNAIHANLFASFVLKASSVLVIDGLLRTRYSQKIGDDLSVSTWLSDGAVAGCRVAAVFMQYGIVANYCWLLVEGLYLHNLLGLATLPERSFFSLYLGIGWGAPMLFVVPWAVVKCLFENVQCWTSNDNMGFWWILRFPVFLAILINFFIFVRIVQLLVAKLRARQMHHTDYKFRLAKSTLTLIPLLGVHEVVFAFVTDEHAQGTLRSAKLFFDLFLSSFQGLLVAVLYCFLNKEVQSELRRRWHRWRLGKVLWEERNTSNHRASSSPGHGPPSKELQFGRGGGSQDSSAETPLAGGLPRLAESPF

B1: Compound No. 0134 (peptide)
peptide: H[Aib]HGTFTSDLS[αMeK]ILEK([AEEA-AEEA-γGlu-C20 diacid])KAA[Iva]EFVEWLIEGGPSSGAPPPS-NH2
modifications: N-terminus assumed
SMILES: CC[C@H](C)[C@H](NC(=O)[C@H](CC(C)C)NC(=O)[C@H](Cc1c[nH]c2ccccc12)NC(=O)[C@H](CCC(=O)O)NC(=O)[C@@H](NC(=O)[C@H](Cc1ccccc1)NC(=O)[C@H](CCC(=O)O)NC(=O)[C@](C)(CC)NC(=O)[C@H](C)NC(=O)[C@H](C)NC(=O)[C@H](CCCCN)NC(=O)[C@H](CCCCNC(=O)COCCOCCNC(=O)COCCOCCNC(=O)CC[C@H](NC(=O)CCCCCCCCCCCCCCCCCCC(=O)O)C(=O)O)NC(=O)[C@H](CCC(=O)O)NC(=O)[C@H](CC(C)C)NC(=O)[C@@H](NC(=O)[C@](C)(CCCCN)NC(=O)[C@H](CO)NC(=O)[C@H](CC(C)C)NC(=O)[C@H](CC(=O)O)NC(=O)[C@H](CO)NC(=O)[C@@H](NC(=O)[C@H](Cc1ccccc1)NC(=O)[C@@H](NC(=O)CNC(=O)[C@H](Cc1c[nH]cn1)NC(=O)C(C)(C)NC(=O)[C@@H](N)Cc1c[nH]cn1)[C@@H](C)O)[C@@H](C)O)[C@@H](C)CC)C(C)C)C(=O)N[C@@H](CCC(=O)O)C(=O)NCC(=O)NCC(=O)N1CCC[C@H]1C(=O)N[C@@H](CO)C(=O)N[C@@H](CO)C(=O)NCC(=O)N[C@@H](C)C(=O)N1CCC[C@H]1C(=O)N1CCC[C@H]1C(=O)N1CCC[C@H]1C(=O)N[C@@H](CO)C(N)=O
With B1 the “Activity against human GIPR (EC50 nM)” value [1] was 0.002 nM, the “Activity against human GLP-1R (EC50 nM)” value [2] was 0.017 nM and the “Activity against human GCGR (EC50 nM)” value (human glucagon receptor) was 0.025 nM.

B2: Compound No. 0133 (peptide)
peptide: H[Aib]HGTFTSDLS[αMeK]LLEK([AEEA-AEEA-γGlu-C20 diacid])KAA[Iva]EFVEWLIEGGPSSGAPPPS-NH2
modifications: N-terminus assumed
SMILES: CC[C@H](C)[C@H](NC(=O)[C@H](CC(C)C)NC(=O)[C@H](Cc1c[nH]c2ccccc12)NC(=O)[C@H](CCC(=O)O)NC(=O)[C@@H](NC(=O)[C@H](Cc1ccccc1)NC(=O)[C@H](CCC(=O)O)NC(=O)[C@](C)(CC)NC(=O)[C@H](C)NC(=O)[C@H](C)NC(=O)[C@H](CCCCN)NC(=O)[C@H](CCCCNC(=O)COCCOCCNC(=O)COCCOCCNC(=O)CC[C@H](NC(=O)CCCCCCCCCCCCCCCCCCC(=O)O)C(=O)O)NC(=O)[C@H](CCC(=O)O)NC(=O)[C@H](CC(C)C)NC(=O)[C@H](CC(C)C)NC(=O)[C@](C)(CCCCN)NC(=O)[C@H](CO)NC(=O)[C@H](CC(C)C)NC(=O)[C@H](CC(=O)O)NC(=O)[C@H](CO)NC(=O)[C@@H](NC(=O)[C@H](Cc1ccccc1)NC(=O)[C@@H](NC(=O)CNC(=O)[C@H](Cc1c[nH]cn1)NC(=O)C(C)(C)NC(=O)[C@@H](N)Cc1c[nH]cn1)[C@@H](C)O)[C@@H](C)O)C(C)C)C(=O)N[C@@H](CCC(=O)O)C(=O)NCC(=O)NCC(=O)N1CCC[C@H]1C(=O)N[C@@H](CO)C(=O)N[C@@H](CO)C(=O)NCC(=O)N[C@@H](C)C(=O)N1CCC[C@H]1C(=O)N1CCC[C@H]1C(=O)N1CCC[C@H]1C(=O)N[C@@H](CO)C(N)=O
B2 was tested, and the “Activity against human GIPR (EC50 nM)” value [1] was 0.002 nM, the “Activity against human GLP-1R (EC50 nM)” value [2] was 0.016 nM and the “Activity against human GCGR (EC50 nM)” value (human glucagon receptor) was 0.03 nM.

H[Aib]HGTFTSDYSILLEK([AEEA-AEEA-γGlu-C20 diacid])KAA[Iva]EFVEWLLAGGPSSGAPPPS-NH2 [Compound No. 0135] was tested, and the “Activity against human GIPR (EC50 nM)” value [1] was 0.001 nM, the “Activity against human GLP-1R (EC50 nM)” value [2] was 0.013 nM and the “Activity against human GCGR (EC50 nM)” value (human glucagon receptor) was 0.019 nM.
